The target in assay [1] is T1, cation-independent mannose-6-phosphate receptor (CI-M6PR), as used in the in vitro receptor binding assay …. Kind of assay: in vitro CI-M6PR binding assay.
Assay [2] deals with cation-independent mannose-6-phosphate receptor (CI-M6PR) on cells overexpressing CI-M6PR. The experiment in a line: cellular uptake assay on cells overexpressing CI-M6PR, intracellular Naglu activity read-out.
In assay [3] the target is T1, cation-independent mannose-6-phosphate …. The experiment in a line: ELISA, CI-M6PR binding, detection with antibody to human Naglu.

Results on 3 molecules are retold here after patent US20170232076A1 (SHIRE HUMAN GENETIC THERAPIES, published 2017).

B1: recombinant human Naglu (rhNaglu) produced in HT-1080 cells overexpressing GNPT (enzyme)
chain: DEAREAAAVRALVARLLGPGPAADFSVSVERALAAKPGLDTYSLGGGGAARVRVRGSTGVAAAAGLHRYLRDFCGCHVAWSGSQLRLPRPLPAVPGELTEATPNRYRYYQNVCTQSYSFVWWDWARWEREIDWMALNGINLALAWSGQEAIWQRVYLALGLTQAEINEFFTGPAFLAWGRMGNLHTWDGPLPPSWHIKQLYLQHRVLDQMRSFGMTPVLPAFAGHVPEAVTRVFPQVNVTKMGSWGHFNCSYSCSFLLAPEDPIFPIIGSLFLRELIKEFGTDHIYGADTFNEMQPPSSEPSYLAAATTAVYEAMTAVDTEAVWLLQGWLFQHQPQFWGPAQIRAVLGAVPRGRLLVLDLFAESQPVYTRTASFQGQPFIWCMLHNFGGNHGLFGALEAVNGGPEAARLFPNSTMVGTGMAPEGISQNEVVYSLMAELGWRKDPVPDLAAWVTSFAARRYGVSHPDAGAAWRLLLRSVYNCSGEACRGHNRSPLVRRPSLQMNTSIWYNRSDVFEAWRLLLTSAPSLATSPAFRYDLLDLTRQAVQELVSLYYEEARSAYLSKELASLLRAGGVLAYELLPALDEVLASDSRFLLGSWLEQARAAAVSEAEADFYEQNSRYQLTLWGPEGNILDYANKQLAGLVANYYTPRWRLFLEALVDSVAQGIPFQQHQFDKNVFQLEQAFVLSKQRYPSQPRGDTVDLAKKIFLKYYPRWVAGSW
modifications: M6P on N-linked glycans enhanced by co-expression with GNPT
notes: Same polypeptide as rhNaglu; It differs in being co-expressed with GNPT; also called GNPT/rhNaglu; rhNaglu produced using a GNPT overexpressing cell line
Broadly, the Kd is a measure of binding affinity in units of concentration. In the case of B1, the dissociation constant Kd in assay [1] is ~0.065 µM.

B2: Naglu-IGFII fusion protein (produced in HT-1080 cells) (enzyme)
chain: DEAREAAAVRALVARLLGPGPAADFSVSVERALAAKPGLDTYSLGGGGAARVRVRGSTGVAAAAGLHRYLRDFCGCHVAWSGSQLRLPRPLPAVPGELTEATPNRYRYYQNVCTQSYSFVWWDWARWEREIDWMALNGINLALAWSGQEAIWQRVYLALGLTQAEINEFFTGPAFLAWGRMGNLHTWDGPLPPSWHIKQLYLQHRVLDQMRSFGMTPVLPAFAGHVPEAVTRVFPQVNVTKMGSWGHFNCSYSCSFLLAPEDPIFPIIGSLFLRELIKEFGTDHIYGADTFNEMQPPSSEPSYLAAATTAVYEAMTAVDTEAVWLLQGWLFQHQPQFWGPAQIRAVLGAVPRGRLLVLDLFAESQPVYTRTASFQGQPFIWCMLHNFGGNHGLFGALEAVNGGPEAARLFPNSTMVGTGMAPEGISQNEVVYSLMAELGWRKDPVPDLAAWVTSFAARRYGVSHPDAGAAWRLLLRSVYNCSGEACRGHNRSPLVRRPSLQMNTSIWYNRSDVFEAWRLLLTSAPSLATSPAFRYDLLDLTRQAVQELVSLYYEEARSAYLSKELASLLRAGGVLAYELLPALDEVLASDSRFLLGSWLEQARAAAVSEAEADFYEQNSRYQLTLWGPEGNILDYANKQLAGLVANYYTPRWRLFLEALVDSVAQGIPFQQHQFDKNVFQLEQAFVLSKQRYPSQPRGDTVDLAKKIFLKYYPRWVAGSWGAPGGGGGAAAAAGGGGGGAPGGGGGAAAAAGGGGGGAPGGGGGAAAAAGGGGGGAPLCGGELVDTLQFVCGDRGFYFSRPASRVSRRSRGIVEECCFRSCDLALLETYCATPAKSE
notes: Purified from conditioned medium
Consider B2, for which the values for the Kd in assay [1] and in assay [3] were 0.00024 µM and ~0.00021 µM, respectively. Besides, the “fold higher affinity than Naglu-SapDC produced in GNPT overexpressing cells” value in assay [2] came to 3.6 fold.

B3: Naglu-LIF fusion protein (produced in HT-1080 cells) (enzyme)
chain: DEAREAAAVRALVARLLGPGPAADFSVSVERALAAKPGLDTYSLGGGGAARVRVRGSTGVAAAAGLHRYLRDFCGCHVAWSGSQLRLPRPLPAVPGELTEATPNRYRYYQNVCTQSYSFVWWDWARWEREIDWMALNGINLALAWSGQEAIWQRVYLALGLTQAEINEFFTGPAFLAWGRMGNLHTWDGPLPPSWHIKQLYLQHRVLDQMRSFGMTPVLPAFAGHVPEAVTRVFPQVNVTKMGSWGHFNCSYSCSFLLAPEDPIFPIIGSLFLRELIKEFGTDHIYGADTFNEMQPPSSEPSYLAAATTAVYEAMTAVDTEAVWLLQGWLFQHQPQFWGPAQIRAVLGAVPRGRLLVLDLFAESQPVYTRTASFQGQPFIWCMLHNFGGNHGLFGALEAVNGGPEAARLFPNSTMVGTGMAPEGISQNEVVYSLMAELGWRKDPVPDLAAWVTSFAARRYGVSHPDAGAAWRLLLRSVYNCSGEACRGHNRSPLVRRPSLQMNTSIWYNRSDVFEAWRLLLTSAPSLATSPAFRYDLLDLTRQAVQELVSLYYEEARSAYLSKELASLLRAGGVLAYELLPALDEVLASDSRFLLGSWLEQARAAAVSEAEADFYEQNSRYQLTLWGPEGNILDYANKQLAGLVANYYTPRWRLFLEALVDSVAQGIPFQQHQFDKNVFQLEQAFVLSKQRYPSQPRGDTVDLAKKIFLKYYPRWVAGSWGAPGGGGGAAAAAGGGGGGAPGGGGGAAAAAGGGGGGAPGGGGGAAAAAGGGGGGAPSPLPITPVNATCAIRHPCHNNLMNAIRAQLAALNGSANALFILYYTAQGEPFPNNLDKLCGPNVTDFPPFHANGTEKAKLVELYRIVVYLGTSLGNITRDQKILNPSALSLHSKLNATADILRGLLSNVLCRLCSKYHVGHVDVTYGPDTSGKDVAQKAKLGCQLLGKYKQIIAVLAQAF
modifications: N-linked glycosylation sites in the LIF part marked (N); by anti-M6P Western blot not M6P-phosphorylated in any detectable manner when overexpressed alone
Take B3: the Kd in assay [3] worked out at 0.0324 µM.
